Measured values reported in US20200283528A1 (NUMAB THERAPEUTICS, published 2020).

B1: PRO1060 (33-03-G02 IgG1 HC with 38_02_A04 sc01 scFv, PDL1/CD137 (scFv) silent Morrison) (bispecific antibody)
light: DIQMTQSPSSLSASVGDRVTITCQASQSINDYLAWYQQKPGKAPKLLIYKASTLASGVPSRFSGSGSGTDFTLTISSLQPEDFATYYCQQGYIITDIDNVFGTGTKVTVLGTVAAPSVFIFPPSDEQLKSGTASVVCLLNNFYPREAKVQWKVDNALQSGNSQESVTEQDSKDSTYSLSSTLTLSKADYEKHKVYACEVTHQGLSSPVTKSFNRGEC
heavy: QVQLQESGPGLVKPSETLSLTCKVSGFSFSSGYDMCWIRQPPGKGLEWIGCVVAGSVDITYYASWAKGRVTISVDSSKNQFSLKLSSVTAADTAVYYCARKDAYSDAFNLWGQGTLVTVSSASTKGPSVFPLAPSSKSTSGGTAALGCLVKDYFPEPVTVSWNSGALTSGVHTFPAVLQSSGLYSLSSVVTVPSSSLGTQTYICNVNHKPSNTKVDKRVEPKSCDKTHTCPPCPAPEAAGGPSVFLFPPKPKDTLMISRTPEVTCVVVDVSHEDPEVKFNWYVDGVEVHNAKTKPREEQYNSTYRVVSVLTVLHQDWLNGKEYKCKVSNKALGAPIEKTISKAKGQPREPQVYTLPPSREEMTKNQVSLTCLVKGFYPSDIAVEWESNGQPENNYKTTPPVLDSDGSFFLYSKLTVDKSRWQQGNVFSCSVMHEALHNHYTQKSLSLSPGKGGGGSGGGGSIQMTQSPSSLSASVGDRVTITCQASQSINNVLAWYQQKPGKAPKLLIYRASTLASGVPSRFSGSGSGTDFTLTISSLQPEDFATYYCQSSYGNYGDFGTGTKVTVLGGGGGSGGGGSGGGGSGGGGSQVQLQESGPGLVKPSETLSLTCKVSGFSFSNSYWICWIRQPPGKGLEWIGCTFVGSSDSTYYANWAKGRVTISVDSSKNQFSLKLSSVTAADTAVYYCARHPSDAVYGYANNLWGQGTLVTVSS
notes: also called Morrison-H
B2: PRO885 (38-02-A04 sc01 scDb-i/33-03-G02 sc01 scDb-o) (bispecific antibody)
chain: DIQMTQSPSSLSASVGDRVTITCQASQSINDYLAWYQQKPGKAPKLLIYKASTLASGVPSRFSGSGSGTDFTLTISSLQPEDFATYYCQQGYIITDIDNVFGTGTKVTVLGGGGGSQVQLQESGPGLVKPSETLSLTCKVSGFSFSNSYWICWIRQPPGKGLEWIGCTFVGSSDSTYYANWAKGRVTISVDSSKNQFSLKLSSVTAADTAVYYCARHPSDAVYGYANNLWGQGTLVTVSSGGGGSGGGGSGGGGSGGGGSIQMTQSPSSLSASVGDRVTITCQASQSINNVLAWYQQKPGKAPKLLIYRASTLASGVPSRFSGSGSGTDFTLTISSLQPEDFATYYCQSSYGNYGDFGTGTKVTVLGGGGGSQVQLQESGPGLVKPSETLSLTCKVSGFSFSSGYDMCWIRQPPGKGLEWIGCVVAGSVDITYYASWAKGRVTISVDSSKNQFSLKLSSVTAADTAVYYCARKDAYSDAFNLWGQGTLVTVSS
B3: PRO1126 (38-02-A04 sc01 scDb-i/33_03_G02 sc03 Full scDb-o) (bispecific antibody)
chain: DFQLTQSPSSLSASVGDRVTITCQASQSINDYLAWYQQKPGKSPKLLIYKASTLASGVPSRFSGSGSGTDFTLTISSLQPEDFATYYCQQGYIITDIDNVFGTGTKVTVLGGGGGSQVQLQESGPGLVKPSETLSLTCKVSGFSFSNSYWICWIRQPPGKGLEWIGCTFVGSSDSTYYANWAKGRVTISVDSSKNQFSLKLSSVTAADTAVYYCARHPSDAVYGYANNLWGQGTLVTVSSGGGGSGGGGSGGGGSGGGGSIQMTQSPSSLSASVGDRVTITCQASQSINNVLAWYQQKPGKAPKLLIYRASTLASGVPSRFSGSGSGTDFTLTISSLQPEDFATYYCQSSYGNYGDFGTGTKVTVLGGGGGSQSQLQESGPGLVKPSETLSLTCKASGFSFSSGYDMCWVRQPPGKGLEWIACVVAGSVDITYYASWAKGRVTISKDSSKNQVSLKLSSVTAADTAVYFCARKDAYSDAFNLWGQGTLVTVSS
B4: PRO1013 (37-20-B03-sc02 scFv) (scFv)
scFv: DIQMTQSPSSLSASVGDRVTITCQASQSIGTYLAWYQQKPGKAPKLLIYRAFILASGVPSRFSGSGSGTDFTLTISSLQPEDFATYYCQSNFYSDSTTIGPNAFGTGTKVTVLGGGGGSGGGGSGGGGSGGGGSQVQLVQSGAEVKKPGASVKVSCKASGFSFNSDYWIYWVRQAPGQGLEWMGSIYGGSSGNTQYASWAQGRVTMTRDTSISTAYMELSSLRSEDTAVYYCARGYVDYGGATDLWGQGTLVTVSS
notes: also called 37-20-B03 CDR, VH1
B5: PRO997/PRO908 (37-20-B03-sc01 scFv) (scFv)
scFv: DIQMTQSPSSLSASVGDRVTITCQASQSIGTYLAWYQQKPGKAPKLLIYRAFILASGVPSRFSGSGSGTDFTLTISSLQPEDFATYYCQSNFYSDSTTIGPNAFGTGTKVTVLGGGGGSGGGGSGGGGSGGGGSQVQLQESGPGLVKPSETLSLTCKVSGFSFNSDYWIYWIRQPPGKGLEWIGSIYGGSSGNTQYASWAQGRVTISVDSSKNQFSLKLSSVTAADTAVYYCARGYVDYGGATDLWGQGTLVTVSS
notes: VL-linker-VH, VH4 CDR graft; PRO997 was made in CHO-S cells, PRO908 in bacteria; also called 37-20-B03 CDR

Experiments:
[1] = target: T1, human PDL1 (recombinant, soluble) (human, UniProt Q9NZQ7 19-238); experiment: PDL1/B7-1 competition ELISA; B7-1 coated, biotinylated PDL1 40 ng/ml
T1 construct: also called hPDL1; hPD-L1
Protocol: (§1) ELISA microplates coated overnight at 4° C. with 4 μg/ml human B7-1 were washed three times with 450 μl wash buffer per well. Plates were blocked for 1 hour at room temperature by adding 300 μl of PBS with 1% BSA and 0.2% tween (dilution buffer) to each well. […] The mixtures were pre-incubated for 1 hour at room temperature under gentle agitation on a rotating mixer (21 rpm) and added to the microplates after 3 wash cycles with 450 μl wash buffer per well. Plates were incubated for 1.5 hours at room temperature under gentle agitation, then 10 ng/ml streptavidin-polyHRP40 was added to each microplate well after three washes with 450 μl of wash buffer per well. After 1 h incubation at RT, plates were washed three times with 450 μl wash buffer and TMB substrate solution was added. The enzymatic reaction was stopped after 6 minutes by addition of 1 M HCl and absorbance was measured at 450 nm using 690 nm as a reference wavelength. For calculation of IC₅₀ values, a four-parameter logistic (4PL) curve fit was performed in Graph Pad Prism using reference subtracted values.

[2] = target: T1, human PDL1 (recombinant, soluble); experiment: PDL1/PD-1 competition ELISA; PD-1 coated, biotinylated PDL1 1 ng/ml
Protocol: as §1, with “PD-1” for “B7-1”

[3] = target: T2, human PDL1 expressed on cells (human, UniProt Q9NZQ7 19-290); experiment: cell-based or functional assay
[4] = target: T2, human PDL1 expressed on cells; experiment: cell-based or functional assay; remark: listed apart in the source
[5] = target: T3, Fc tagged human PDL1 (human, UniProt Q9NZQ7 19-238); experiment: SPR Biacore T200; PDL1-Fc captured
T3 construct: also called PDL1-Fc chimeric protein (human); not shown: Fc tag
Protocol: (§2) An antibody specific for the Fc region of human IgGs was immobilized on a sensor chip (CM5 sensor chip, GE Healthcare) by amine-coupling. […] After each injection cycle, surfaces were regenerated with one injection of a 3 M MgCl₂ solution. The apparent dissociation (kd) and association (kₐ) rate constants and the apparent dissociation equilibrium constant (KD) were calculated using one-to-one Langmuir binding model.

[6] = target: T2, human PDL1 expressed on cells; experiment: cell-based or functional assay; remark: listed apart in the source
[7] = target: T3, Fc tagged human PDL1; experiment: SPR Biacore T200; PDL1-Fc captured; molecule 0.12-90 nM
Protocol: as §2

[8] = target: T1, human PDL1 (recombinant, soluble); experiment: PDL1/B7-1 competition ELISA; B7-1 coated; scFv
Protocol: (§3) ELISA plates were coated by adding 50 μl of PBS containing 4 μg/ml B7-1 overnight at 4° C. Next day, plates were washed three times in overflow mode with 450 μl wash buffer (PBS, 0.005% Tween 20) per wells and 300 μl of blocking buffer (PBS, 1% BSA, 0.2% Tween 20) were added to each well for 1 h at RT on a nutating mixer. […] ELISA pates were washed 3 times in overflow mode with 450 μl wash buffer and two times 50 μl of each dilution was added in adjacent wells of the ELISA plates in order to generate duplicates. Plates were incubated 90 minutes at RT under gentle agitation. After three washes with 450 μl of washing buffer, 50 μl of streptavidin-polyHRP40 was added to each wells of the ELISA plate. After 1 h incubation at RT, plates were washed three times with 450 μl wash buffer and developed for 5 to 10 minutes after addition of 50 μl TMB. Finally, the enzymatic reaction was stopped by addition of 50 μl of 1 M HCl and plate was read at 450 nm using 690 nm as a reference wavelength.

[9] = target: cynomolgus PDL1, recombinant (Sino Biological) / PDL1-Fc chimeric protein (cynomolgus (Macaca fascicularis), UniProt G7PSE7 19-238); experiment: SPR Biacore T200; cynomolgus PDL1 (Sino Biological) captured; scFv as analyte
Protocol: (§4) After each analyte injection cycle, the CM5 sensor chip was regenerated and new antigen was captured. The scFvs were injected as analyte using a dose response multicycle kinetic assay with concentrations of the analyte ranging from 0.12 to 30 nM diluted in running buffer for 5 min and dissociation of the protein was allowed to proceed for 12 min. Obtained sensorgrams were fitted using the 1:1 binding model.

[10] = target: T1, human PDL1 (recombinant, soluble); experiment: PDL1/PD-1 competition ELISA; PD-1 coated; scFv
Protocol: as §3, with “4 μg/ml PD-1 overnight at” for “4 μg/ml B7-1 overnight at”, “μl of 10 ng/ml streptavidin-polyHRP40 were” for “μl of streptavidin-polyHRP40 was”, “ng/ml streptavidin-polyHRP40 were added to” for “of streptavidin-polyHRP40 was added to”, “the ELISA plates. After 1” for “the ELISA plate. After 1”

[11] = target: T2, human PDL1 expressed on cells; experiment: cell-based or functional assay; remark: listed apart in the source
[12] = target: T3, Fc tagged human PDL1; experiment: SPR Biacore T200; Fc tagged PDL1 captured; scFv 0.12-30 nM
Protocol: as §4

cynomolgus PDL1, recombinant (Sino Biological) / PDL1-Fc chimeric protein, sequence (G7PSE7 entry or part of it mutant limits assumed): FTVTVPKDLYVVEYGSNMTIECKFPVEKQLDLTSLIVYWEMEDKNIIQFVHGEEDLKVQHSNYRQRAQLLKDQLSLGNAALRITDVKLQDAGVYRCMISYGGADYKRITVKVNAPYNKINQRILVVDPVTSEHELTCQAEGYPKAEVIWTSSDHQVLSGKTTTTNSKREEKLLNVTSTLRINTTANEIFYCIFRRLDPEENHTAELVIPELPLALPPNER

| Binder | IC50 [1] [ng/mL] | IC50 [2] [ng/mL] | NF-AT potency assay IC50 [3] [ng/mL] | IL-2 secretion of SEA stimulated PBMC, EC50 in ng/ml [4] [ng/mL] | Kd [7] [pM] | other results |
| --- | --- | --- | --- | --- | --- | --- |
| B1 | 17.4 | 5.67 | 133 |  |  |  |
| B2 | 12.2 | 8.35 | 137 | 39.9 |  |  |
| B3 |  | 1.28 |  |  | 3.5 | fold improvement in affinity against the CDR graft (PRO885) [5]: 20 fold; NFAT reporter gene assay IC50 [6]: 48.1 ng/mL; NFAT reporter gene assay, improvement of neutralization potency against PRO885 [6]: 3 fold |
| B4 | 4.05 | 0.57 | 21.3 |  |  |  |
| B5 | 6.36 | 0.5 | 11.1 | 40.9 | 1.7 | IC50 [8]: 1.21 ng/mL; Maximum Inhibition (%) [8]: 93.1%; KD, cyno/KD, human [9]: < 0.28; Kd [9]: < 1.68 pM; kon [9]: 5.96e+06 M⁻¹ s⁻¹; fold higher affinity against the STR graft of clone 33-03-G02 [5]: ~2 fold; NFAT reporter gene assay, fold potency of VH4 graft (PRO997) against VH1 graft (PRO1013) [6]: ~2 fold; IC50 [10]: 0.33 ng/mL; Maximum Inhibition (%) [10]: 100%; reporter gene assay IC50 [11]: 8.02 ng/mL; reporter gene assay Maximum Inhibition (%) [11]: 95.3%; Kd [12]: 5.94 pM; koff [12]: 4.02e-05 s⁻¹; kon [12]: 6.76e+06 M⁻¹ s⁻¹ |
